Assays:
[1] = biological target: wild type Apolipoprotein B mRNA-editing enzyme-catalytic polypeptide-like 3G (A3G), cmyc-tagged, expressed from pD3GFP / D3GFP (human) (UniProt Q9HC16); assay: cell-based or functional assay
[2] = biological target: mutant A3G D128K, cmyc-tagged, expressed from pD3GFPD128K / D3GFPD128K (human) (UniProt Q9HC16); assay: cell-based or functional assay

With “HIV-1 viral infectivity factor (Vif), expressed from the helper plasmid pcHelp” the infectivity of HIV-GFP virus produced from vector-carrying 293T cells in the presence of HIV-1 Vif, percent of control [1] was 89 % of control, the infectivity of HIV-GFP virus produced from vector-carrying 293T cells in the presence of HIV-1 Vif, percent of control [2] was 1 % of control and the inhibition of HIV-GFP replication by the A3G-expressing plasmid in the presence of HIV-1 Vif (GFP flow cytometry of infected 293T cells) [2] was 90%.

— patent publication US20120034693A1
